Test results: patent publication US20180147232

Flag-TSC2, P49815, sequence (P49815 whole entry): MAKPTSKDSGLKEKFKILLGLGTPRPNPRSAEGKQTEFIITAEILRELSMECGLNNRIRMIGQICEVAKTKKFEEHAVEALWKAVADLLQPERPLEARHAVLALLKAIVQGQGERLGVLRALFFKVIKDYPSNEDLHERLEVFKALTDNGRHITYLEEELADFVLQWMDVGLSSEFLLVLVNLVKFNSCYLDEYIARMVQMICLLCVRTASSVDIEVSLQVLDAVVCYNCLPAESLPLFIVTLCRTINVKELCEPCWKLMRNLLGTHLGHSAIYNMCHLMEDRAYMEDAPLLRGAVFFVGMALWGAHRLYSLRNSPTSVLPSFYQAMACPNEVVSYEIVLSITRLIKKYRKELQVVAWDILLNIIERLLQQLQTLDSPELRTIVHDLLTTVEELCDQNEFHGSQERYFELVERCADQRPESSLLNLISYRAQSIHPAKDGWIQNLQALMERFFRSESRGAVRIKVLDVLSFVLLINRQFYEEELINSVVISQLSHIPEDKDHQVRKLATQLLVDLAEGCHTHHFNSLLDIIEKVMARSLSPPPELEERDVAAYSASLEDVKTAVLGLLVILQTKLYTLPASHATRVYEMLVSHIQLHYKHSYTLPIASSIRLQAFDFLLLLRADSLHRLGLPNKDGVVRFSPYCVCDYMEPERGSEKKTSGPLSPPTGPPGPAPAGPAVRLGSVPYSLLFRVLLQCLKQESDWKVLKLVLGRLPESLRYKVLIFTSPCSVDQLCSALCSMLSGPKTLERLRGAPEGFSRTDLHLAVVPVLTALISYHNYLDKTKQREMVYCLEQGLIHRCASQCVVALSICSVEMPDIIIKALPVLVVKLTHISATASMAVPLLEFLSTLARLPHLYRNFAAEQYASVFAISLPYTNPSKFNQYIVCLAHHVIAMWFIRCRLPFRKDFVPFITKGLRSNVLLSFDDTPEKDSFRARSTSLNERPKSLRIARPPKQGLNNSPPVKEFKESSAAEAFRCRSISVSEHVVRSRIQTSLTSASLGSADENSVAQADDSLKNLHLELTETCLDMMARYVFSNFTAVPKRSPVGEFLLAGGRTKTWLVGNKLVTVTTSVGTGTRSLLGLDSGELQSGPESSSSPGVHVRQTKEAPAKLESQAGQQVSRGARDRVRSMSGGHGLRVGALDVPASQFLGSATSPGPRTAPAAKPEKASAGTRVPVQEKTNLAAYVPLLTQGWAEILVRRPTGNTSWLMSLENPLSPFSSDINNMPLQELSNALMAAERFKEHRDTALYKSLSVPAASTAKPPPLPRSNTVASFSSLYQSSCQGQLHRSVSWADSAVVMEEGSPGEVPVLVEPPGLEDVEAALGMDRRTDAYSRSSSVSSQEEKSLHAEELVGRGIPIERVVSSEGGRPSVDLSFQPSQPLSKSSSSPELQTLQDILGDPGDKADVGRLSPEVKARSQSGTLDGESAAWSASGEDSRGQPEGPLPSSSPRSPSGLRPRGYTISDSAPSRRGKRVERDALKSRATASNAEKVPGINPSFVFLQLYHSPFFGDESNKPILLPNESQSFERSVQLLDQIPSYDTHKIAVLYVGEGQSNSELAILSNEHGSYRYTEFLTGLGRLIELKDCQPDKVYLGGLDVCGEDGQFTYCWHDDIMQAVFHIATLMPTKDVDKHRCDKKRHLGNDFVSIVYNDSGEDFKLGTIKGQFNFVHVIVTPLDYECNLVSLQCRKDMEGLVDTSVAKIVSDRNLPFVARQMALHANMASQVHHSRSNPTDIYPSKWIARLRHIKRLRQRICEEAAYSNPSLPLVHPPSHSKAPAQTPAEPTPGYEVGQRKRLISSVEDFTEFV
Flag-TSC2 6A, P49815, sequence (P49815 other isoform, or with tags, fused parts or gaps): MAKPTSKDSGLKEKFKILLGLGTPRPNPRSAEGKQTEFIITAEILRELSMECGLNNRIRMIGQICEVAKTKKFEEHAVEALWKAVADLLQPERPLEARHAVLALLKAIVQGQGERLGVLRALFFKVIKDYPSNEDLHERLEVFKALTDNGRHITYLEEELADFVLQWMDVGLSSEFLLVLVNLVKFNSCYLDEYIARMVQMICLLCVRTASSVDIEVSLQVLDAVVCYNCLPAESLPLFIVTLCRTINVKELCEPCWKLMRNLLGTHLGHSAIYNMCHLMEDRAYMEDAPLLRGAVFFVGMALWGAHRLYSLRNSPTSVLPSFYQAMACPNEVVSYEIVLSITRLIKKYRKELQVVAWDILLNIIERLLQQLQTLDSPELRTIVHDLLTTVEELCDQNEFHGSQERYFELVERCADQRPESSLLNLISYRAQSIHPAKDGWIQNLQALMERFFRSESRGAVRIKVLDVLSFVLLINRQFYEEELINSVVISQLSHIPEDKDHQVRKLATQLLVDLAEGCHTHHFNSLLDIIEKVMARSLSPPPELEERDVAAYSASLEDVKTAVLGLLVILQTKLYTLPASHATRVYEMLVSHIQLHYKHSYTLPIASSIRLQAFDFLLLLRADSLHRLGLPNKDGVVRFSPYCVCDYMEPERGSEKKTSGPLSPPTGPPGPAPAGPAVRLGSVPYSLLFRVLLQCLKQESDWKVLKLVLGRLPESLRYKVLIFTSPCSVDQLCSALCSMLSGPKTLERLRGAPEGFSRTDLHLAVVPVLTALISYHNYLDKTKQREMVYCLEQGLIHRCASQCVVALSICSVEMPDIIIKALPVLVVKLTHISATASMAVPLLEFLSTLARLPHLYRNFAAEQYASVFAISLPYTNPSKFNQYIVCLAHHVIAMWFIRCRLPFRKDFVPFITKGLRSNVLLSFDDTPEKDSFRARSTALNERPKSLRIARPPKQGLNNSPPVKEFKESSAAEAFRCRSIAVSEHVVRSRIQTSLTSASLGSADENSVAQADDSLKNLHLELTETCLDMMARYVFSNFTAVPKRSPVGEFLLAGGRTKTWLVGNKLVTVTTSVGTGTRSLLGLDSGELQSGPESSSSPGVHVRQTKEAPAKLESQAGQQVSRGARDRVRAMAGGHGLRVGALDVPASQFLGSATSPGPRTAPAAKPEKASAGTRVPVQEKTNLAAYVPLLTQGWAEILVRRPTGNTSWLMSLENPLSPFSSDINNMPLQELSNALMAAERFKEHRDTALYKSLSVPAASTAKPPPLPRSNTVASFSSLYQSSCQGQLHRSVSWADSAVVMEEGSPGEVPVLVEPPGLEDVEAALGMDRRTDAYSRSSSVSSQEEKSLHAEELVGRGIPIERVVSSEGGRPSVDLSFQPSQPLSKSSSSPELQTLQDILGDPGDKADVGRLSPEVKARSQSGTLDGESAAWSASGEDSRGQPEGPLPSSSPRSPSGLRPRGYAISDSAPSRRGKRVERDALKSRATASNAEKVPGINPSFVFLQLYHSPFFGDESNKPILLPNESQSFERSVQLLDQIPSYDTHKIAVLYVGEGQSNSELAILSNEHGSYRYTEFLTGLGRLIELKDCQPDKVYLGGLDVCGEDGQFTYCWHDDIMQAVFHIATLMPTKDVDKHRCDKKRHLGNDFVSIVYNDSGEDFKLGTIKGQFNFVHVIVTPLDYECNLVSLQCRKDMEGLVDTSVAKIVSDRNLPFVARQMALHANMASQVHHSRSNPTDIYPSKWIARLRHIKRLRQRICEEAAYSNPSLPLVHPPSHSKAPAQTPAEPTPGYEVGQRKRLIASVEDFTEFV

B1: recombinant His-SGK1 (Δ60) (protein)
chain: ISQPQEPELMNANPSPPPSPSQQINLGPSSNPHAKPSDFHFLKVIGKGSFGKVLLARHKAEEVFYAVKVLQKKAILKKKEEKHIMSERNVLLKNVKHPFLVGLHFSFQTADKLYFVLDYINGGELFYHLQRERCFLEPRARFYAAEIASALGYLHSLNIVYRDLKPENILLDSQGHIVLTDFGLCKENIEHNSTTSTFCGTPEYLAPEVLHKQPYDRTVDWWCLGAVLYEMLYGLPPFYSRNTAEMYDNILNKPLQLKPNITNSARHLLEGLLQKDRTKRLGAKDDFMEIKSHVFFSLINWDDLINKKITPPFNPNVSGPNDLRHFDPEFTEEPVPNSIGKSPDSVLVTASVKEAAEAFLGFDYAPPTDSFL
phosphorylation of S939, S981, T993, S1130, S1132, T1462 and S1798 of TSC2 by mass spectrometry after the in vitro kinase assay (Flag-TSC2, P49815): we found increased phosphorylation in all these sites, except at T993
phosphorylation of the RXRXX(S/T) sites of TSC2, in vitro kinase assay (Flag-TSC2, P49815): The addition of recombinant SGK1 kinase increased the phosphorylation of the RXRXX(S/T) (SEQ ID NO: 1) sites of TSC2 independent of the AKT activity
phosphorylation of TSC2, in vitro kinase assay (Flag-TSC2 6A, P49815): Mutation of these six sites into the non-phosphorylatable amino acid alanine (TSC2 6A) completely abrogated the ability of SGK1 to phosphorylate TSC2 in vitro
